Here are results for 1 substance from article doi:10.1101/2022.01.28.478199.

Values joined by “and” are separate entries in the source; they are usually repeats but may differ in a detail not shown here. Identical values can stand only once.

For the assay, the target named is Hsp78TR-6xHis (Hsp78 E216Q/E614Q Walker B mutant with a C-terminal 6x polyhistidine-tag) (S. cerevisiae) (UniProt P33416). In words: native gel or EMSA. In general terms: Mobility shift assays separate free from complexed probe on a gel.

In general, stoichiometry N refers to a count of units in the complex or per binding partner.

As to “Hsp78TR-6xHis (Hsp78 E216Q/E614Q Walker B mutant with a C-terminal 6x polyhistidine-tag) (from UniProt P33416 45-811) (natural protein)”, the stoichiometry N was 3 and 6.
